In article PMC9352680, “A comprehensive thermodynamic model for RNA binding by the Saccharomyces cerevisiae Pumilio protein PUF4” one finds Kd data, which are given here for 33 molecules.

Data set [1] addresses T1, PUF4 RNA-binding domain (Pumilio homology domain) (Saccharomyces cerevisiae) (UniProt P25339).
T1 sequence: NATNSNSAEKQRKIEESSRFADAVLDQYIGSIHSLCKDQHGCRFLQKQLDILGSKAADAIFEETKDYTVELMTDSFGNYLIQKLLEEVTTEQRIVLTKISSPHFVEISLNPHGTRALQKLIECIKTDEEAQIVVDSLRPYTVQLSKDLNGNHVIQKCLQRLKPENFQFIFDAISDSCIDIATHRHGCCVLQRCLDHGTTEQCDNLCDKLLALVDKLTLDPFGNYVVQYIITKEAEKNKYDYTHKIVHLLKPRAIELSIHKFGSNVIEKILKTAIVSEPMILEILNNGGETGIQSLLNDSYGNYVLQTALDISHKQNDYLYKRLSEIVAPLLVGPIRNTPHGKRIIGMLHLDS
The experiment in a line: RNA-MaP. Particulars: RNA-MaP: 20 mM Na-HEPES pH 7.4, 0.1% Tween-20, 5% glycerol, 0.1 mg/mL BSA, 2 mM DTT, low salt 0.75 mM MgCl2 + 30 mM KOAc (model data; high salt 2 mM MgCl2 + …).

Another data set deals with T2, PUF4 RNA-binding domain (Saccharomyces cerevisiae, UniProt P25339 537-888).
T2 sequence: T1 sequence
The experiment in a line: Mg; RNA-MaP; 20 mM Na-HEPES pH 7.4, 30 mM KOAc, 0.75 mM MgCl2, 0.1% Tween-20, 5% glycerol, 0.1 mg/mL BSA, 2 mM DTT; 25 C; 0.0125-409.6 nM protein. Particulars: tags: N-His6-TEV cleaved; C-SNAP kept, Cy3B-labelled; label: tethered on chip by stalled RNA polymerase.

The target of data set [2] is T3, PUF4 RNA-binding domain (Pumilio homology domain) (Saccharomyces cerevisiae, UniProt P25339 537-888).
T3 sequence: T1 sequence
The experiment in a line: RNA-MaP; ddG 1.315; RNA-MaP: 20 mM Na-HEPES pH 7.4, 0.1% Tween-20, 5% glycerol, 0.1 mg/mL BSA, 2 mM DTT, low salt 0.75 mM MgCl2 + 30 mM KOAc (model data; high salt 2 mM MgCl2 + 100 mM KOAc), 25 C. Particulars: protein: recombinant; tags: C-terminal SNAP tag, Cy3B-labeled; N-terminal His tag removed with TEV; label: array RNA; single-stranded.

The target in data set [3] is T3, PUF4 RNA-binding domain (Pumilio …). The data set is described as follows: RNA-MaP; ddG 0.961; RNA-MaP: 20 mM Na-HEPES pH 7.4, 0.1% Tween-20, 5% glycerol, 0.1 mg/mL BSA, 2 mM DTT, low salt 0.75 mM MgCl2 + 30 mM KOAc (model data; high salt 2 mM MgCl2 + 100 mM KOAc), 25 C. Particulars: protein: recombinant; tags: C-terminal SNAP tag, Cy3B-labeled; N-terminal His tag removed with TEV; label: array RNA; single-stranded.

Data set [4] has the same target. The experiment in a line: RNA-MaP; ddG 2.995; RNA-MaP: 20 mM Na-HEPES pH 7.4, 0.1% Tween-20, 5% glycerol, 0.1 mg/mL BSA, 2 mM DTT, low salt 0.75 mM MgCl2 + 30 mM KOAc (model data; high salt 2 mM MgCl2 + 100 mM KOAc), 25 C. To be noted: protein: recombinant; tags: C-terminal SNAP tag, Cy3B-labeled; N-terminal His tag removed with TEV; label: array RNA; single-stranded.

Data set [5] has the same target. The data set is described as follows: RNA-MaP; ddG 1.467; RNA-MaP: 20 mM Na-HEPES pH 7.4, 0.1% Tween-20, 5% glycerol, 0.1 mg/mL BSA, 2 mM DTT, low salt 0.75 mM MgCl2 + 30 mM KOAc (model data; high salt 2 mM MgCl2 + 100 mM KOAc), 25 C. To be noted: protein: recombinant; tags: C-terminal SNAP tag, Cy3B-labeled; N-terminal His tag removed with TEV; label: array RNA; single-stranded.

For data set [6] the target is unchanged. The data set is described as follows: RNA-MaP; ddG 1.641; RNA-MaP: 20 mM Na-HEPES pH 7.4, 0.1% Tween-20, 5% glycerol, 0.1 mg/mL BSA, 2 mM DTT, low salt 0.75 mM MgCl2 + 30 mM KOAc (model data; high salt 2 mM MgCl2 + 100 mM KOAc), 25 C. To be noted: protein: recombinant; tags: C-terminal SNAP tag, Cy3B-labeled; N-terminal His tag removed with TEV; label: array RNA; single-stranded.

Data set [7] shares this target. The experiment in a line: RNA-MaP; ddG 1.591; RNA-MaP: 20 mM Na-HEPES pH 7.4, 0.1% Tween-20, 5% glycerol, 0.1 mg/mL BSA, 2 mM DTT, low salt 0.75 mM MgCl2 + 30 mM KOAc (model data; high salt 2 mM MgCl2 + 100 mM KOAc), 25 C. Particulars: protein: recombinant; tags: C-terminal SNAP tag, Cy3B-labeled; N-terminal His tag removed with TEV; label: array RNA; single-stranded.

Data set [8] has the same target. The experiment in a line: RNA-MaP; ddG 3.166; RNA-MaP: 20 mM Na-HEPES pH 7.4, 0.1% Tween-20, 5% glycerol, 0.1 mg/mL BSA, 2 mM DTT, low salt 0.75 mM MgCl2 + 30 mM KOAc (model data; high salt 2 mM MgCl2 + 100 mM KOAc), 25 C. Particulars: protein: recombinant; tags: C-terminal SNAP tag, Cy3B-labeled; N-terminal His tag removed with TEV; label: array RNA; single-stranded.

Data set [9] shares this target. The experiment in a line: RNA-MaP; ddG 1.827; RNA-MaP: 20 mM Na-HEPES pH 7.4, 0.1% Tween-20, 5% glycerol, 0.1 mg/mL BSA, 2 mM DTT, low salt 0.75 mM MgCl2 + 30 mM KOAc (model data; high salt 2 mM MgCl2 + 100 mM KOAc), 25 C. To be noted: protein: recombinant; tags: C-terminal SNAP tag, Cy3B-labeled; N-terminal His tag removed with TEV; label: array RNA; single-stranded.

Data set [10] shares this target. The experiment in a line: RNA-MaP; ddG 3.526; RNA-MaP: 20 mM Na-HEPES pH 7.4, 0.1% Tween-20, 5% glycerol, 0.1 mg/mL BSA, 2 mM DTT, low salt 0.75 mM MgCl2 + 30 mM KOAc (model data; high salt 2 mM MgCl2 + 100 mM KOAc), 25 C. To be noted: protein: recombinant; tags: C-terminal SNAP tag, Cy3B-labeled; N-terminal His tag removed with TEV; label: array RNA; single-stranded.

The target is the same in data set [11]. The experiment in a line: RNA-MaP; ddG 0.390; RNA-MaP: 20 mM Na-HEPES pH 7.4, 0.1% Tween-20, 5% glycerol, 0.1 mg/mL BSA, 2 mM DTT, low salt 0.75 mM MgCl2 + 30 mM KOAc (model data; high salt 2 mM MgCl2 + 100 mM KOAc), 25 C. Particulars: protein: recombinant; tags: C-terminal SNAP tag, Cy3B-labeled; N-terminal His tag removed with TEV; label: array RNA; single-stranded.

With UGUAUAUUAU in S1a scaffold, the Kd in data set [1] was determined as 0.88 nM.
Turning to UGUAUCGCAC in S1b scaffold, in data set [1], the Kd is above 2400 nM.
For the molecule ACAAACUAUAUAUUCACAAAC (ssRNA) [Ib_S3_P4E.1_K4.1_C4.1_H4.1_[G2A]_A4.1_F4.1_[A9C]_T4.1], in the data set with PUF4 RNA-binding domain, the Kd is 1480 nM.
Still for that read-out and setting: the result for ACAAACUUUAUAUUCACAAAC (ssRNA) [Ib_S3_P4E.1_K4.1_C4.1_H4.1_[G2T]_A4.1_F4.1_[A9C]_T4.1] reads above 2300 nM.
As to UCUCUUUGUAAAUAUCUCUU (ssRNA) [S1a K3.1 T5A], the Kd in data set [2] was -10.3 ± 0.252 kcal/mol (dG=RTlnKd).
As to ACAAACAGUAUAUAAACAAAC (ssRNA) [Ib_S3_P4E.1_K4.1_C4.1_H4.1_[T1A]_A4.1_F4.1_[T8A]_T4.1], the Kd with PUF4 RNA-binding domain was above 2300 nM.
Take ACAAACUUUAGAUAACAAAC (ssRNA) [Ib_S3_P3E.1_K3.1_C3.1_H3.1_[G2T]_A3.1_[T5G]_F3.1_T3.1]: the Kd with PUF4 RNA-binding domain was above 2300 nM.
As for ACAAACUCUAUAUCAACAAAC (ssRNA) [Ib_S3_P4E.1_K4.1_C4.1_H4.1_[G2C]_A4.1_F4.1_[T8C]_T4.1], the Kd with PUF4 RNA-binding domain was above 2300 nM.
The same measure, in the same setting: then ACAAACGGUAUAUGAACAAAC (ssRNA) [Ib_S3_P4E.1_K4.1_C4.1_H4.1_[T1G]_A4.1_F4.1_[T8G]_T4.1], with above 2300 nM.
On to UCUCUUUGUAUAUGAUCUCUU (ssRNA) [S1a K4.1 T8G], for which the Kd in [3] was -10.7 ± 0.299 kcal/mol (dG=RTlnKd).
Consider ACAAACUUUAUUUAACAAAC (ssRNA) [Ib_S3_P3E.1_K3.1_C3.1_H3.1_[G2T]_A3.1_[A6T]_F3.1_T3.1], for which the Kd with PUF4 RNA-binding domain is above 2300 nM.
ACAAACUGCAUAUUUACAAAC (ssRNA) [Ib_S3_P4E.1_K4.1_C4.1_H4.1_[T3C]_A4.1_F4.1_[A9T]_T4.1]: the Kd with PUF4 RNA-binding domain is 839 nM.
On to UCUCUUUGUUUAUAUCUCUU (ssRNA) [S1a K3.1 A4T], for which the Kd in data set [4] was -8.62 ± 0.651 kcal/mol (dG=RTlnKd).
The molecule ACAAACUCUAUAUUCACAAAC (ssRNA) [Ib_S3_P4E.1_K4.1_C4.1_H4.1_[G2C]_A4.1_F4.1_[A9C]_T4.1] returned a Kd with PUF4 RNA-binding domain above 2300 nM.
Take ACAAACUGCAGAUAACAAAC (ssRNA) [Ib_S3_P3E.1_K3.1_C3.1_H3.1_[T3C]_A3.1_[T5G]_F3.1_T3.1]: the Kd with PUF4 RNA-binding domain is above 2300 nM.

B1: Ia_S2_P5E.1_K5.1_C5.1_H5.1_A5.1_[T5C]_F5.1_T5.1 (ssRNA)
RNA: UUUGAUUAAUAUGAUAUCGUUCUUUCUUGUACUAUUAUUCUUUCUCGAUAUCAUAUUAAUCUUU
The molecule B1 returned a Kd with PUF4 RNA-binding domain of 1.48 nM.
The same measure, in the same setting: then ACAAACAGUAUAUCAACAAAC (ssRNA) [Ib_S3_P4E.1_K4.1_C4.1_H4.1_[T1A]_A4.1_F4.1_[T8C]_T4.1], with above 2300 nM; and ACAAACACUAUAUUAACAAAC (ssRNA) [Ib_S3_P4E.1_K4.1_C4.1_H4.1_[T1A]_[G2C]_A4.1_F4.1_T4.1], with above 2300 nM.
With UCUCUUUGUAUUUAUCUCUU (ssRNA) [S1a K3.1 A6T], the Kd in [5] was -10.2 ± 0.227 kcal/mol (dG=RTlnKd).
ACAAACUGGAUUUAACAAAC (ssRNA) [Ib_S3_P3E.1_K3.1_C3.1_H3.1_[T3G]_A3.1_[A6T]_F3.1_T3.1] had a Kd with PUF4 RNA-binding domain above 2300 nM.
Still for that read-out and setting: the result for ACAAACGGUAUAUAAACAAAC (ssRNA) [Ib_S3_P4E.1_K4.1_C4.1_H4.1_[T1G]_A4.1_F4.1_[T8A]_T4.1] reads 1980 nM; that for ACAAACUAUAUUUAACAAAC (ssRNA) [Ib_S3_P3E.1_K3.1_C3.1_H3.1_[G2A]_A3.1_[A6T]_F3.1_T3.1], above 2300 nM.
On to UCUCUUUGUAUCUAUCUCUU (ssRNA) [S1a K3.1 A6C], for which the Kd in [6] is -9.98 ± 0.415 kcal/mol (dG=RTlnKd).
In the case of UCUCUUUGUAUACAUCUCUU (ssRNA) [S1a K3.1 T7C], the Kd in data set [7] was -10 ± 0.544 kcal/mol (dG=RTlnKd).
The molecule ACAAACUGAAUCUAACAAAC (ssRNA) [Ib_S3_P3E.1_K3.1_C3.1_H3.1_[T3A]_A3.1_[A6C]_F3.1_T3.1] showed a Kd with PUF4 RNA-binding domain above 2300 nM.
On the same count and under the same terms, the result for ACAAACUGUCUUUAACAAAC (ssRNA) [Ib_S3_P3E.1_K3.1_C3.1_H3.1_[A4C]_A3.1_[A6T]_F3.1_T3.1] reads above 2300 nM; that for ACAAACCGUAUAUUCACAAAC (ssRNA) [Ib_S3_P4E.1_K4.1_C4.1_H4.1_[T1C]_A4.1_F4.1_[A9C]_T4.1], above 2300 nM.
On to UCUCUUUAUAUAUAUCUCUU (ssRNA) [S1a K3.1 G2A], for which the Kd in data set [8] is -8.45 ± 0.403 kcal/mol (dG=RTlnKd).
For the molecule UCUCUUUGUAUGUAUCUCUU (ssRNA) [S1a K3.1 A6G], the Kd in data set [9] is -9.79 ± 0.309 kcal/mol (dG=RTlnKd).
Regarding UCUCUUUGUCUAUAUCUCUU (ssRNA) [S1a K3.1 A4C], the Kd in data set [10] is -8.09 ± 0.737 kcal/mol (dG=RTlnKd).
For UCUCUUUGUACAUAUCUCUU (ssRNA) [S1a K3.1 T5C], the Kd in data set [11] was -11.2 ± 0.37 kcal/mol (dG=RTlnKd).
Molecule ACAAACUGGAGAUAACAAAC (ssRNA) [Ib_S3_P3E.1_K3.1_C3.1_H3.1_[T3G]_A3.1_[T5G]_F3.1_T3.1] yielded a Kd with PUF4 RNA-binding domain above 2300 nM.
Same read-out and setting: the result for ACAAACUGCAUAUUCACAAAC (ssRNA) [Ib_S3_P4E.1_K4.1_C4.1_H4.1_[T3C]_A4.1_F4.1_[A9C]_T4.1] reads above 2300 nM.
